This data set has as its target T1, dSLBP P231G RPD (Drosophila, UniProt Q9VAN6 173-276, P231G).
T1 sequence: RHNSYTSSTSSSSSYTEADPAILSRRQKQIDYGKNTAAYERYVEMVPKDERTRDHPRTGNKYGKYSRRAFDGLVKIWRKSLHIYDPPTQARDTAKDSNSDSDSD
In words: NMR.

In the case of GGCCAAAGGCCCUUUUCAGGGCCACCCA (structured_RNA) [SL28-CG], the binding result is on record as “binds”.
